Columns and labels:
[1] = molecular target: ALK-1 (transfected cDNA, on cells) (Homo sapiens (Human), UniProt P37023 22-503); assay: affinity cross-linking of ^125I-BMP4 to COS-1 cells transfected with ALK1 and daf-4 cDNA; immunoprecipitation with ALK antiserum, autoradiography
Experimental: (§1) Briefly, cells in multi-well plates were washed with binding buffer (e.g., phosphate buffered saline containing 0.9 mM CaCl₂, 0.49 mM MgCl₂ and 1 mg/ml bovine serum albumin (BSA)), incubated on ice in the same buffer with labelled ligand, in the presence and absence of excess unlabelled ligand for sufficient time for the reaction to equilibrate (e.g., 3 hours.) Cells were washed and the crosslinking was done in the binding buffer without BSA together with 0.28 mM disuccinimidyl suberate for 15 min on ice. […] Cells were centrifuged again and supernatants subjected to analysis by standard SDS-gel electrophoresis using 4%-15% polyacrylamide gels, followed by autoradiography.
(§2) The gels were fixed and dried, and then subjected to autoradiography or analysis using phosphorimager (Molecular Dynamics).
(§3) In the Table, “N/T” means “not tested”. […] The values represented by “+/−”, “+”, “++”, “+++”, and “−”, are all qualitative descriptors of the relative amount of radioactivity measured when the crosslinked molecules were gel electrophoresed and subjected to autoradiography.

[2] = molecular target: T1, ALK-2 (transfected cDNA, on cells) (Homo sapiens (Human), UniProt Q04771 21-509); assay: affinity cross-linking of ^125I-BMP4 to COS-1 cells transfected with ALK2 and daf-4 cDNA; immunoprecipitation with ALK antiserum, autoradiography
T1 construct: Expressed from cDNA in COS-1 cells or in Mv1Lu R mutant cells
T1 sequence: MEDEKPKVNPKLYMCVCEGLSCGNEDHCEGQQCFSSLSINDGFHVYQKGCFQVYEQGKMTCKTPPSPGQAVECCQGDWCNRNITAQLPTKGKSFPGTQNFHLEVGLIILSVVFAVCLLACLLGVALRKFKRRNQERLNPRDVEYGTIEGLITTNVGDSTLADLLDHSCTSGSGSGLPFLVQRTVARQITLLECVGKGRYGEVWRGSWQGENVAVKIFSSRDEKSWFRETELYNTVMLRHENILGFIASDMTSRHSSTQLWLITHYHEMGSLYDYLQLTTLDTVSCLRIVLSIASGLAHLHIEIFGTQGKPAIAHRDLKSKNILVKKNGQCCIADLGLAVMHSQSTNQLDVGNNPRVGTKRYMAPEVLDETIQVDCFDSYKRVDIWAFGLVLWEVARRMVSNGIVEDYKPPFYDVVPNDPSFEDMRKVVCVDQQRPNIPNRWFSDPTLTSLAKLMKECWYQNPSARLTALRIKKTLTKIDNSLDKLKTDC
Experimental: as §1, §2, §3

[3] = molecular target: T2, ALK-4 (transfected cDNA, on cells) (UniProt P36896 24-505, limits assumed); assay: affinity cross-linking of ^125I-BMP4 to COS-1 cells transfected with ALK4 and daf-4 cDNA; immunoprecipitation with ALK antiserum, autoradiography
T2 construct: whole, on cells
T2 sequence (looked up): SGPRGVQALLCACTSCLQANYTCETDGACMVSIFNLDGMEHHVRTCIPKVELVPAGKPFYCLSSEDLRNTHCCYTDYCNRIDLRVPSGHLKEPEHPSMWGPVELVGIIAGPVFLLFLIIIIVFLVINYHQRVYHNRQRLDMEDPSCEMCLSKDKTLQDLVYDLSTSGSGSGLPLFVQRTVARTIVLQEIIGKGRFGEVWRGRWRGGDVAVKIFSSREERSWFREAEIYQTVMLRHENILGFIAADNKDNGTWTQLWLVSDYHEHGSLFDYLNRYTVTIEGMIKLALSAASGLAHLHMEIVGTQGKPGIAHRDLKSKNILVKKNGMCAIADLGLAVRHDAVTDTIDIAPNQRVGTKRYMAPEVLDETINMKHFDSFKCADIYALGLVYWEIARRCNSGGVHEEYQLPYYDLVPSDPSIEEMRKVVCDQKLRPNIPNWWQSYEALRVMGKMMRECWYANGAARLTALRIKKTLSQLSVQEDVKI
Experimental: as §1, §2, §3

[4] = molecular target: T3, ALK-5 (transfected cDNA, on cells) (UniProt P36897 34-503, limits assumed); assay: affinity cross-linking of ^125I-BMP4 to COS-1 cells transfected with ALK5 and daf-4 cDNA; immunoprecipitation with ALK antiserum, autoradiography
T3 construct: whole, on cells
T3 sequence (looked up): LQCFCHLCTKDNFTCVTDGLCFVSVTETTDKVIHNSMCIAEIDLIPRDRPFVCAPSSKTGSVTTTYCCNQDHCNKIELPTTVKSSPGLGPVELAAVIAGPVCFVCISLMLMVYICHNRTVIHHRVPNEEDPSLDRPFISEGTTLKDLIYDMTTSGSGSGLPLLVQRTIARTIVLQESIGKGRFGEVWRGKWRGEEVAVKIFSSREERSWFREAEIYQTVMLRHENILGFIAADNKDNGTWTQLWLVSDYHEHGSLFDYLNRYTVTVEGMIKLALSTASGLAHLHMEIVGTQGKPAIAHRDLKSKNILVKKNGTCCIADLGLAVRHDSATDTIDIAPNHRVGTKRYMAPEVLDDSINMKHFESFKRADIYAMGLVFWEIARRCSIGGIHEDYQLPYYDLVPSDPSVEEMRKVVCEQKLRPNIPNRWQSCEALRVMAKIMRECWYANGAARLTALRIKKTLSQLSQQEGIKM
Experimental: as §1, §2, §3

[5] = molecular target: T3, ALK-5 (transfected cDNA, on cells); assay: affinity cross-linking of ^125I-OP1 to COS-1 cells transfected with ALK5 and daf-4 cDNA; immunoprecipitation with ALK antiserum, autoradiography
Experimental: as §1, §2, §3

[6] = molecular target: T2, ALK-4 (transfected cDNA, on cells); assay: affinity cross-linking of ^125I-OP1 to COS-1 cells transfected with ALK4 and daf-4 cDNA; immunoprecipitation with ALK antiserum, autoradiography
Experimental: as §1, §2, §3

Measured: binding result

Chain of ALK-1 (transfected cDNA, on cells) (P37023 22-503 S172T limits assumed): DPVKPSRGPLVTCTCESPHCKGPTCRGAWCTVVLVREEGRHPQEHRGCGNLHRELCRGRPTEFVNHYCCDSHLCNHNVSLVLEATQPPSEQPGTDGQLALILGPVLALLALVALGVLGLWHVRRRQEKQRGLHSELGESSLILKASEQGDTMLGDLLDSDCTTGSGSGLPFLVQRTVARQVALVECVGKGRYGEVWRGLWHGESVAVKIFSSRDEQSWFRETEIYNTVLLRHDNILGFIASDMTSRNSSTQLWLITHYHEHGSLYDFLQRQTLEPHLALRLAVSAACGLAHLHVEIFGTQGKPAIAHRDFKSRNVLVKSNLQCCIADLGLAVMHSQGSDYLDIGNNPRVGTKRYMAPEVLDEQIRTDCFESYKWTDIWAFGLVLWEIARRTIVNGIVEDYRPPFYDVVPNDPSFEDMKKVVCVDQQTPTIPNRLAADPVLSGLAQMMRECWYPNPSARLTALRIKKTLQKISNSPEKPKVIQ

B1: BMP-4 (ligand, UniProt P12644 293-408, looked up)
chain: SPKHHSQRARKKNKNCRRHSLYVDFSDVGWNDWIVAPPGYQAFYCHGDCPFPLADHLNSTNHAIVQTLVNSVNSSIPKACCVPTELSAISMLYLDEYDKVVLKNYQEMVVEGCGCR
modifications: ^125I label (radioiodinated, residue not stated)
no binding: [1] | [2] | [3] | [4]

B2: OP-1 (osteogenic protein-1) (ligand)
chain: STGSKQRSQNRSKTPKNQEALRMANVAENSSSDQRQACKKHELYVSFRDLGWQDWIIAPEGYAAYYCEGECAFPLNSYMNATNHAIVQTLVHFINPETVPKPCCAPTQLNAISVLYFDDSSNVILKKYRNMVVRACGCH
modifications: ^125I label (radioiodinated, residue not stated); unlabeled when used as competitor
no binding: [5] | [6]
